The values below come from US5723307A, “Fluorogenic substrates for assay of angiotensin converting enzyme” (Development Center for Biotechnology, priority 1995, dated 1998).

Starred links: 1 amine or outer side, 2 acyl side, 3 side chain; linkers in the order of their positions; H or OH if unused. Non-standard residues stand in square brackets, D forms with d. Residues, ends and D or L forms follow the SMILES beside them. *: point of attachment. Phe(4-NO2) = N[C@@H](Cc1ccc([N+](=O)[O-])cc1)C(=O)O; EDANS = O=S(=O)(O)c1cccc2c(NCCN*)cccc12; Suc = O=C(CCC(=O)[*:2])[*:1]; 2Abz = Nc1ccccc1C(=O)O

The nature of series [1]: solubility in aqueous buffer. The class given is physicochemical.
In a further series the test system is ACE. The conditions noted are these: from literature, cited from earlier work; for Km: Ref. [16]-[20].
Substrate in series [2]: O=C(CCC(=O)N[C@@H](Cc1ccccc1)C(=O)N[C@@H](Cc1c[nH]c2ccccc12)C(=O)N[C@@H](Cc1ccccc1)C(=O)O)NCCNc1cccc2c(S(=O)(=O)O)cccc12
Briefly: continuous spectrofluorometric assay of hydrolysis of fluorogenic substrates by ACE (kinetic parameters). The class given is biochemical, rabbit. The conditions noted are these: other: 0.05M Hepes buffer pH 8.2, 0.2M NaCl, 1M Na2SO4, Lineweaver-Burk, ex 286 nm, em 360 nm, 37.0 °C. How it is done: (§1) Fluorescence data were recorded on a HITACHI Model F2000 fluorescence spectrophotometer (Tokyo, Japan) set at wavelengths of 286 nm (excitation)and 360 nm (emission). The rates of enzymatic hydrolysis of the fluorogenic compounds ES-FWF, ES-FWG, ES-FWH, ES-FWK, ES-FWL and ES-FHW were monitored fluorospectrophotometrically as follows: A solution of ACE was prepared at 1.3×10^-2 units/ml (concentration of enzyme was estimated by using the Bio-Rad protein assay kit with bovine serum albumin as a standard). […] Activity was assayed with hippuryl-L-histidyl-L-leucine as a substrate. One unit of enzyme activity is the amount required to catalyze the formation of 1.0 μmol of hippuric acid per minute (in 50 mM Hepes, pH 8.3, and 0.3M NaCl at 37° C.). For fluorescence measurement, 20 μl of enzyme solution was added to 0.5 ml substrate solution (2×10^-6 -6.5×10^-5 M) in 0.05M Hepes buffer, pH 8.2, containing 0.2M NaCl and 1M Na2 SO4, placed in an optical cell. […] The increase in fluorescence (emission at 360 nm, excitation at 286 nm) with time, in the presence of the enzyme, was recorded continuously. Since the product (and perhaps the substrate as well) is subject to photodecomposition, the slit width of the excitation monochromator must not be too large. Alternatively, the reaction can be monitored automatically by pulse illumination with a time interval of 150, sec, as shown in FIG. 1.
(§2) Dependence of the rate of hydrolysis on substrate concentration was established by initial rate measurements (within the first 10% of hydrolysis). The slope of the line was translated into molar concentrations of the released dipeptides using a calibration curve constructed by fluorescence measurements of solutions containing authentic dipeptide under identical conditions. Km values were calculated by the method of Lineweaver-Burk plots. Five points with approximately equidistance on the 1/[S] abscissa were obtained from the average of two independent measurements. Kinetic parameters for other substrates were also obtained by similar procedures.
(§3) Kinetic parameters of ES-FWF, ES-FWG, ES-FWH, ES-FWK, ES-FWL and ES-FHW for ACE were obtained by continuous spectrofluorometric assay, and the results are listed in Table I. In order to compare the characteristics of the ES-peptides with those of previously reported fluorogenic substrates, the kinetic parameters from literatures were collected for comparison.

Substrate in series [3]: CC(C)C[C@H](NC(=O)[C@H](Cc1c[nH]c2ccccc12)NC(=O)[C@H](Cc1ccccc1)NC(=O)CCC(=O)NCCNc1cccc2c(S(=O)(=O)O)cccc12)C(=O)O
Described as above. In kind it is biochemical, rabbit. The conditions noted are these: other: 0.05M Hepes buffer pH 8.2, 0.2M NaCl, 1M Na2SO4, Lineweaver-Burk, ex 286 nm, em 360 nm, 37.0 °C. The protocol: as §1, §2, §3

Substrate in series [4]: O=C(CCC(=O)N[C@@H](Cc1ccccc1)C(=O)N[C@@H](Cc1c[nH]cn1)C(=O)N[C@@H](Cc1c[nH]c2ccccc12)C(=O)O)NCCNc1cccc2c(S(=O)(=O)O)cccc12
Described as above. The class given is biochemical, rabbit. Particulars: other: 0.05M Hepes buffer pH 8.2, 0.2M NaCl, 1M Na2SO4, Lineweaver-Burk, ex 286 nm, em 360 nm, 37.0 °C. How it is done:
as §1, §2, §3

Substrate in series [5]: NCCCC[C@H](NC(=O)[C@H](Cc1c[nH]c2ccccc12)NC(=O)[C@H](Cc1ccccc1)NC(=O)CCC(=O)NCCNc1cccc2c(S(=O)(=O)O)cccc12)C(=O)O
Described as above. In kind it is biochemical, rabbit. The conditions noted are these: other: 0.05M Hepes buffer pH 8.2, 0.2M NaCl, 1M Na2SO4, Lineweaver-Burk, ex 286 nm, em 360 nm, 37.0 °C. How it is done: as §1, §2, §3

Substrate in series [6]: O=C(CCC(=O)N[C@@H](Cc1ccccc1)C(=O)N[C@@H](Cc1c[nH]c2ccccc12)C(=O)N[C@@H](Cc1c[nH]cn1)C(=O)O)NCCNc1cccc2c(S(=O)(=O)O)cccc12
Described as above. Particulars: other: 0.05M Hepes buffer pH 8.2, 0.2M NaCl, 1M Na2SO4, Lineweaver-Burk, ex 286 nm, em 360 nm, 37.0 °C. The class given is biochemical, rabbit. How it is done:
as §1, §2, §3

Substrate in series [7]: O=C(O)CNC(=O)[C@H](Cc1c[nH]c2ccccc12)NC(=O)[C@H](Cc1ccccc1)NC(=O)CCC(=O)NCCNc1cccc2c(S(=O)(=O)O)cccc12
The description is as above. The conditions noted are these: other: 0.05M Hepes buffer pH 8.2, 0.2M NaCl, 1M Na2SO4, Lineweaver-Burk, ex 286 nm, em 360 nm, 37.0 °C. In kind it is biochemical, rabbit. How it is done:
as §1, §2, §3

In general, solubility refers to the concentration that dissolves in the medium under given conditions. `NCCCC[C@H](NC(=O)[C@H](Cc1c[nH]c2ccccc12)NC(=O)[C@H](Cc1ccccc1)NC(=O)CCC(=O)NCCNc1cccc2c(S(=O)(=O)O)cccc12)C(=O)O` [ES-FWK] ({EDANS-Suc}-Phe-Trp-Lys-OH) gave a solubility in series [1] of 7000 to 40000 µg/mL.
Same read-out and setting: for `O=C(CCC(=O)N[C@@H](Cc1ccccc1)C(=O)N[C@@H](Cc1c[nH]c2ccccc12)C(=O)N[C@@H](Cc1ccccc1)C(=O)O)NCCNc1cccc2c(S(=O)(=O)O)cccc12` [ES-FWF] ({EDANS-Suc}-Phe-Trp-Phe-OH) the value was 7000 to 40000 µg/mL; for `CC(C)C[C@H](NC(=O)[C@H](Cc1c[nH]c2ccccc12)NC(=O)[C@H](Cc1ccccc1)NC(=O)CCC(=O)NCCNc1cccc2c(S(=O)(=O)O)cccc12)C(=O)O` [ES-FWL] ({EDANS-Suc}-Phe-Trp-Leu-OH), 7000 to 40000 µg/mL; for `O=C(O)CNC(=O)[C@H](Cc1c[nH]c2ccccc12)NC(=O)[C@H](Cc1ccccc1)NC(=O)CCC(=O)NCCNc1cccc2c(S(=O)(=O)O)cccc12` [ES-FWG] ({EDANS-Suc}-Phe-Trp-Gly-OH), 7000 to 40000 µg/mL.
As a reminder, the Km is the concentration of substrate that gives half-maximal velocity. Usually kcat stands for the maximal rate divided by the concentration of active sites. Turning to `Nc1ccccc1C(=O)NCC(=O)N[C@@H](Cc1ccc([N+](=O)[O-])cc1)C(=O)N1CCC[C@H]1C(=O)O` [Abz-GF(NO2)P, o-aminobenzoyl-glycyl-p-nitro-L-phenylalanyl-L-proline] (H-[2Abz]G[Phe(4-NO2)]P-OH), in the series with ACE, the Km was 190 µM. For the same molecule, in the series on ACE (Ref. [17]-[20]), the kcat was 1.5 s⁻¹ and the kcat/Km is given as 7.7 × 10^3 M^-1 S^-1.
On to `O=C(O)CNC(=O)[C@H](Cc1c[nH]c2ccccc12)NC(=O)CNC(=O)OCc1ccc([N+](=O)[O-])cc1` [Z(NO2)-GWG, p-nitrobenzyloxycarbonylglycyl-L-tryptophyl-glycine], for which the Km in the series with ACE was 900 µM.
Regarding `O=C(CCC(=O)N[C@@H](Cc1ccccc1)C(=O)N[C@@H](Cc1c[nH]cn1)C(=O)N[C@@H](Cc1c[nH]c2ccccc12)C(=O)O)NCCNc1cccc2c(S(=O)(=O)O)cccc12` [ES-FHW] ({EDANS-Suc}-Phe-His-Trp-OH), the solubility in series [1] lay within 7000 to 40000 µg/mL.
Same read-out and setting: for `O=C(CCC(=O)N[C@@H](Cc1ccccc1)C(=O)N[C@@H](Cc1c[nH]c2ccccc12)C(=O)N[C@@H](Cc1c[nH]cn1)C(=O)O)NCCNc1cccc2c(S(=O)(=O)O)cccc12` [ES-FWH] ({EDANS-Suc}-Phe-Trp-His-OH) the value was 7000 to 40000 µg/mL.

B1: ACE (from rabbit lung, Sigma Chemical Co.) (Oryctolagus cuniculus) (protein)
chain: TLDPGLLPGDFAADEAGARLFASSYNSSAEQVLFRSTAASWAHDTNITAENARRQEEEALLSQEFAEAWGKKAKELYDPVWQNFTDPELRRIIGAVRTLGPANLPLAKRQQYNSLLSNMSQIYSTGKVCFPNKTASCWSLDPDLNNILASSRSYAMLLFAWEGWHNAVGIPLKPLYQEFTALSNEAYRQDGFSDTGAYWRSWYDSPTFEEDLERIYHQLEPLYLNLHAYVRRVLHRRYGDRYINLRGPIPAHLLGNMWAQSWESIYDMVVPFPDKPNLDVTSTMVQKGWNATHMFRVAEEFFTSLGLLPMPPEFWAESMLEKPEDGREVVCHASAWDFYNRKDFRIKQCTQVTMDQLSTVHHEMGHVQYYLQYKDQPVSLRRANPGFHEAIGDVLALSVSTPAHLHKIGLLDHVTNDTESDINYLLKMALEKIAFLPFGYLVDQWRWGVFSGRTPSSRYNFDWWYLRTKYQGICPPVVRNETHFDAGAKFHIPSVTPYIRYFVSFVLQFQFHQALCMEAGHQGPLHQCDIYQSTRAGAKLRAVLQAGCSRPWQEVLKDMVASDALDAQPLLDYFQPVTQWLQEQNERNGEVLGWPEYQWRPPLPNNYPEGIDLVTDEAEASRFVEEYDRSFQAVWNEYAEANWNYNTNITTEASKILLQKNMQIANHTLTYGNWARRFDVSNFQNATSKRIIKKVQDLQRAVLPVKELEEYNQILLDMETIYSVANVCRVDGSCLQLEPDLTNLMATSRKYDELLWVWTSWRDKVGRAILPYFPKYVEFTNKAARLNGYVDAGDSWRSMYETPTLEQDLERLFQELQPLYLNLHAYVGRALHRHYGAQHINLEGPIPAHLLGNMWAQTWSNIYDLVAPFPSASTMDATEAMIKQGWTPRRMFEEADKFFISLGLLPVPPEFWNKSMLEKPTDGREVVCHASAWDFYNGKDFRIKQCTTVNMEDLVVVHHEMGHIQYFMQYKDLPVALREGANPGFHEAIGDVLALSVSTPKHLHSINLLSSEGGGYEHDINFLMKMALDKIAFIPFSYLVDEWRWRVFDGSITKENYNQEWWSLRLKYQGLCPPAPRSQGDFDPGAKFHIPSSVPYIRYFVSFIIQFQFHEALCKAAGHTGPLHTCDIYQSKEAGKRLADAMKLGYSKPWPEAMKVITGQPNMSASAMMNYFKPLMDWLLTENGRHGEKLGWPQYTWTPNSARSEGSLPDSGRVNFLGMNLDAQQARVGQWVLLFLGVALLLASLGLTQRLFSIRYQSLRQPHHGPQFGSEVELRHS
notes: ACE (from rabbit lung, Sigma Chemical Co.); purchased Sigma Chemical Co; host or cells: rabbit lung (tissue)
For B1, the Michaelis constant (Km) in series [2] was determined as 4.5 µM; in series [3] it was 2.7 µM; in series [4], 15 µM; in series [5], 24 µM; in series [6], 4.9 µM; in series [7] it was 23 µM. Further, the turnover number (kcat) came out at 2.1 s⁻¹ in series [2]; 0.9 s⁻¹ in series [3]; 2.0 s⁻¹ in series [4]; 3.8 s⁻¹ in series [5]; 0.8 s⁻¹ in series [6]; 2.0 s⁻¹ in series [7]. The kcat/Km is 4.6 × 10^5 M^-1 S^-1 in series [2]; 3.2 × 10^5 M^-1 S^-1 in series [3]; 1.3 × 10^5 M^-1 S^-1 in series [4]; 1.6 × 10^5 M^-1 S^-1 in series [5]; 1.7 × 10^5 M^-1 S^-1 in series [6]; 8.9 × 10^4 M^-1 S^-1 in series [7].
